According to patent US7550427B2, “Poly-pegylated protease inhibitors” (Dyax Corp., priority 2003, dated 2009):
Where two headings read alike, the source gives them in different places. Where no end group is shown, it is not given here.

Experiments:
[1] = Allometric extrapolation of clearance to humans; format: in vivo; settings: 70 Kg human
From the text: The data were plotted using a double 4-parameter exponential decay.

[2] = Plasma clearance in rabbit of 125I-labeled protein; settings: for Clearance (%) alpha phase: fraction cleared through alpha phase; for Clearance (%) beta phase: fraction cleared through beta phase; for Clearance (%) gamma phase: fraction cleared through gamma phase; for T1/2 alpha / T1/2 beta / T1/2 gamma: plasma clearance, ear vein injection
Procedure: (§1) The following methods can be used to evaluate the pharmacokinetics (PK) of proteins such as poly-PEGylated proteins in animals, e.g., mice and rabbits. The protein to be tested is labeled with iodine (^125I) using the iodogen method (Pierce). The reaction tube is rinsed with reaction buffer (25 mM Tris, 0.4 M NaCl, pH 7.5). The tube is emptied and then replaced with 0.1 ml of reaction buffer and 12 μl of carrier free iodine-126, about 1.6 mCi. After six minutes, the activated iodine is transferred to a tube containing the protein to be tested. After nine minutes, the reaction is terminated with 25 μl of saturated tyrosine solution. The reaction can be purified on a 5 ml D-salt polyacrylamide 6000 column in Tris/NaCl. HSA can be used to minimize sticking to the gel.
(§2) For rabbits, the material is injected into the ear vein. Samples can be collected at 0, 7, 15, 30, 90 minutes, 4, 8, 16, 24, 48, 72, 96, 120, and 144 hours post-injection. Samples can be collected and analyzed as for mice.
(§3) Data can be fit to a bi-exponential (equation 2) or a tri-exponential (equation 3) decay curve describing “fast”, “slow”, and “slowest” phases of in vivo clearance: y=Ae^−αt+Be^−βt Equation 2 y=Ae^−αt+Be^−βt+Ce^−γt Equation 3 Where: • y=Amount of label remaining in plasma at time=t post-administration • A=Total label in “fast” clearance phase • B=Total label in “slow” clearance phase • C=Total label in “slowest” clearance phase • α=“Fast” clearance phase decay constant • β=“Slow” clearance phase decay constant • γ=“Slowest” clearance phase decay constant • t=Time post administration
(§4) The α, β, and γ phase decay constants can be converted to half-lives for their respective phases as: α Phase Half-life=0.69 (1/α) β Phase Half-life=0.69 (1/β) γ Phase Half-life=0.69 (1/γ)
(§5) In the case where the data are fit using the bi-exponential equation, the percentages of the total label cleared from in vivo circulation through the α and β phases are calculated as: % α Phase=[A/(A+B)]×100 % β Phase=[B/(A+B)]×100
(§6) In the case where the data are fit using the tri-exponential equation, the percentages of the total label cleared from in vivo circulation through the α and β phases are calculated as: % α Phase=[A/(A+B+C)]×100 % β Phase=[B/(A+B+C)]×100 % γ Phase=[C/(A+B+C)]×100

[3] = Plasma clearance in mice of 125I-labeled protein; settings: for Clearance (%) alpha phase: fraction of label cleared through alpha phase; for Clearance (%) beta phase: fraction of label cleared through beta phase; for T1/2 alpha / T1/2 beta: plasma clearance, tail vein injection
Procedure: (§7) The protein to be tested is labeled with iodine (^125I) using the iodogen method (Pierce). The reaction tube is rinsed with reaction buffer (25 mM Tris, 0.4 M NaCl, pH 7.5). The tube is emptied and then replaced with 0.1 ml of reaction buffer and 12 μl of carrier free iodine-126, about 1.6 mCi. After six minutes, the activated iodine is transferred to a tube containing the protein to be tested. After nine minutes, the reaction is terminated with 25 μl of saturated tyrosine solution. The reaction can be purified on a 5 ml D-salt polyacrylamide 6000 column in Tris/NaCl. HSA can be used to minimize sticking to the gel.
(§8) A sufficient number of mice (about 36) are obtained. The weight of each animal is recorded. In the case of mice, the animals are injected in the tail vein with about 5 μg of the protein to be tested. Samples are recovered at each time point per animal, with four animals per time point, at approximately 0, 7, 15, 30, and 90 minutes, 4 hours, 8 hours, 16 hours, and 24 hours post injection. Samples (about 0.5 ml) are collected into anti-coagulant (0.02 ml EDTA). Cells are spun down and separated from plasma/serum. Samples can be analyzed by radiation counting and SEC peptide column on HPLC with inline radiation detection.
as §3, §4, §5, §6

[4] = Solubility upon dilution in Hepes buffer for the PEGylation reaction; format: physicochemical; settings: stock ~10 mg/ml diluted 1:1 with 0.2M Hepes, pH 7.8-8.5
Procedure: • mPEG-SPA, MW 5,000 Da, NEKTAR Therapeutics, cat. no.: 2M4M0H01 (succinimidyl ester of methoxy-capped polyethylene glycol propionic acid) • DX-88 API, MW 7,054 Da, ˜10 mg/ml in PBS, pH 7.0 • DX-890 API, MW 6,231 Da, ˜10 mg/ml in 10 mM NaAc, pH 3.0 • DX-1000 API, MW 7,167 Da, ˜10 mg/ml in PBS, pH 7.0 • 0.2-0.3M Hepes, pH 7.8-8.5 • 1M Tris, pH8.0 • 1N HCl PEGylation Reaction I: • 1) Calculate the amount of PEG needed for reacting the Kunitz domain polypeptide at approximately 10:1 molar ratio of PEG:reactive group. For example, DX-890 has 5 total reactive groups, so a 50:1 molar ratio of PEG:DX-890 is used. Depending upon the Kunitz domain polypeptide and/or reaction conditions, a ratio of 25:1 to 50:1 is typically used. For example, for PEGylating 10 mg of DX-890 (MW 6,231 Da) at a 50:1 molar ratio of PEG:peptide, 401 mg of PEG (MW 5,000 Da) would be used. • 2) Just prior to reacting the Kunitz domain polypeptide with the PEG, dilute the required volume of Kunitz domain polypeptide stock 1:1 with 0.2M Hepes, pH 7.8-8.5 buffer. The peptide stock is typically ˜10.0 mg/ml. Therefore upon dilution, the concentration of the Kunitz domain polypeptide is ˜5.0 mg/ml in 0.1M Hepes, pH 7.8-8.5 buffer. […] Reaction times can be chosen to minimize precipitation. • 3) Immediately add the 1:1 diluted Kunitz domain polypeptide solution directly to the PEG powder and quickly dissolve the PEG by vortexing. Once completely dissolved, cap the tube, wrap in foil and allow to react while slowly rocking/tumbling for 2.5-3 hours at 2-8° C. to 25° C. • 4) Quench the reaction by adding 1/9th. volume of 1 M Tris, pH 8.0 for 30-60 minutes at 2-8° C. to 25° C. while slowly rocking/tumbling. • 5) Carefully and slowly adjust the pH of the quench reaction mixture to ˜ pH 7 with small additions of 1N HCl while mixing. • 6) The neutralized reaction can be stored at 2-8° C. or frozen at −20° C. to −80° C. until purification. The direct addition of the Kunitz domain polypeptide solution to PEG powder can help simplify the number of steps in the reaction process and reduce hydrolysis prior to reaction.

[5] = Acute and subchronic 4-week studies of aerosolised DX-890 in cynomolgus monkeys; format: in vivo
[6] = target: T1, hNE of sputum from cystic fibrosis children (Homo sapiens, UniProt P08246); settings: in vitro, ex vivo and in vivo pharmacological studies (Delacourt et al. 2002); cited from earlier work
T1 construct: hNE of sputum from cystic fibrosis children; from tissue; host or cells: sputum from cystic fibrosis children
T1 sequence (P08246 30-247 limits assumed): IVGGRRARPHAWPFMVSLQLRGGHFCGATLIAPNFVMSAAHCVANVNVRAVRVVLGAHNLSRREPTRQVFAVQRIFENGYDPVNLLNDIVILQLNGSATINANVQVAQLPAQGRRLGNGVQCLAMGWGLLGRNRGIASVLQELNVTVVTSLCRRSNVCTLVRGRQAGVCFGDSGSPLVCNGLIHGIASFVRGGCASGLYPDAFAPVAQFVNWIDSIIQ

[7] = Resistance to oxidative and proteolytic inactivation; format: physicochemical
From the text: DX-890 is derived from the second Kunitz-type domain of inter-α-inhibitor protein (ITI-D2) and can be produced by fermentation in Pichia pastoris. It includes 56 amino acids, with a predicted MW of 6,237 Daltons.

[8] = 14-day daily nebulization in 12 healthy volunteers; format: in vivo, human
Procedure: It is possible, for example, to deliver DX-890 to the lung by nebulization. DX-890 activity was detected in broncho-alveolar lavages of volunteer inhaling nebulized DX-890. 12 healthy volunteers received during 14 days a single daily dose of DX-890, by nebulization lasting 5 or 20 minutes, corresponding to estimated inhaled mass of 3.75 or 15 mg respectively. […] No clinical or biological abnormalities were observed.

[9] = rabbit, in vivo
Procedure: as §1, §2, §3, §4, §5, §6

[10] = mouse, in vivo
Procedure: as §7, §8, §3, §4, §5, §6

[11] = Clinical studies in healthy human volunteers, inhalation at 8 increasing doses; format: in vivo; settings: inhaled mass up to about 72 mg
[12] = allometric extrapolation from mice and rabbits
[13] = allometric extrapolation, restated in days
[14] = 12 healthy volunteers, 14 days single daily dose, nebulization, inhaled mass 3.75 or 15 mg

| Substance | Extrapolated long half life clearance phase [1, 12] [h] | Extrapolated long half life clearance phase [1, 13] | Clearance (%) alpha phase [2] [%] | Clearance (%) beta phase [2] [%] | Clearance (%) gamma phase [2] [%] | T1/2 alpha [2] [min] | T1/2 beta [2] [h] | T1/2 gamma [2] [h] | Clearance (%) alpha phase [3] [%] | Clearance (%) beta phase [3] [%] | T1/2 alpha [3] [h] | T1/2 beta [3] [h] | Solubility upon dilution [4] | other results |
| --- | --- | --- | --- | --- | --- | --- | --- | --- | --- | --- | --- | --- | --- | --- |
| 4 × PEG5-DX-1000: DX-1000 with four attached 5 kDa PEG moieties (4×5 kDa PEG/peptide) (MHSFCAFKAETGPCRARFDRWFFNIFTRQCEEFIYGGCEGNQNRFESLEECKKMCTRD; not fully specified; cysteine pairing not given here; also: four attached 5 kDa PEG moieties (4×5 kDa PEG/peptide)) | 210 | about 9 days | 34 | 32 | 34 | 1.9 | 3 | 69.3 | 38 | 62 | 0.3 | 12.5 |  |  |
| 5 × PEG5-DX-890: modified DX-890 with five attached 5 kDa PEG moieties (mPEG-SPA) (EACNLPIVRGPCIAFFPRWAFDAVKGKCVLFPYGGCQGNGNKFYSEKECREYCGVP; not fully specified; cysteine pairing not given here; also: five attached 5 kDa PEG moieties (mPEG-SPA)) | 330 | about 14 days | 28 | 34 | 38 | 2.8 | 4.5 | 97.6 | 33 | 67 | 1.1 | 20.2 |  |  |
| DX-88: a kallikrein inhibitor, a Kunitz domain with three available lysines (SEQ ID NO:24) (EAMHSFCAFKADDGPCRAAHPRWFFNIFTRQCEEFIYGGCEGNQNRFESLEECKKMCTRD; Synthetically generated peptide) |  |  |  |  |  |  |  |  |  |  |  |  | relatively stable in terms of solubility upon dilution |  |
| DX-890: 56-amino-acid Kunitz domain (SEQ ID NO:23) derived from ITI-D2; inhibitor of human neutrophil elastase (EACNLPIVRGPCIAFFPRWAFDAVKGKCVLFPYGGCQGNGNKFYSEKECREYCGVP; Synthetically generated peptide) | 8.4 |  | 83 | 17 |  |  |  |  | 79 | 21 |  |  | may precipitate over time | Clinical or biological toxicity, histopathological lesions [5]: no signs of clinical or biological toxicity; Effect against lesions induced by hNE of sputum from cystic fibrosis children [6]: protective effect; Resistance to oxidative and proteolytic inactivation [7]: resistant to oxidative and proteolytic inactivation; Adverse events [8, 14]: no significant adverse event; Tolerability [8, 14]: excellent; DX-890 activity in broncho-alveolar lavages ([8]; volunteer inhaling nebulized DX-890): detected; T1/2 alpha [9]: 1.7 min; T1/2 beta [9]: 3.4 h; T1/2 alpha [10]: 1.3 min; T1/2 beta [10]: 0.987 h; Safety of administration by inhalation [11]: safe |
| DX-1000: a human plasmin inhibitor, a Kunitz domain with three available lysines (SEQ ID NO:25) (EAMHSFCAFKAETGPCRARFDRWFFNIFTRQCEEFIYGGCEGNQNRFESLEECKKMCTRD; Synthetically generated peptide) | 1.7 |  | 85 | 15 |  | 0.9 | 1 |  | 87 | 13 | 0.025 | 0.448 | relatively stable in terms of solubility upon dilution |  |
